{"source": "patent US20100260717", "about": "“METHODS OF […] A […] FAMILY VIRAL INFECTION, COMPOSITIONS FOR […] A […] FAMILY VIRAL INFECTION, AND […] ASSAYS FOR […] COMPOSITIONS FOR […] A […] FAMILY VIRAL INFECTION” (published 2010)", "binders": {"B1": {"name": "4A (ssRNA)", "RNA": "AUUUAUUUAUUUAUUUA"}}, "molecular_target": "HuR (ELAVL1) (Homo sapiens, UniProt Q15717 Q15717:1-326)", "sequence (Q15717 whole entry, one chain of several)": "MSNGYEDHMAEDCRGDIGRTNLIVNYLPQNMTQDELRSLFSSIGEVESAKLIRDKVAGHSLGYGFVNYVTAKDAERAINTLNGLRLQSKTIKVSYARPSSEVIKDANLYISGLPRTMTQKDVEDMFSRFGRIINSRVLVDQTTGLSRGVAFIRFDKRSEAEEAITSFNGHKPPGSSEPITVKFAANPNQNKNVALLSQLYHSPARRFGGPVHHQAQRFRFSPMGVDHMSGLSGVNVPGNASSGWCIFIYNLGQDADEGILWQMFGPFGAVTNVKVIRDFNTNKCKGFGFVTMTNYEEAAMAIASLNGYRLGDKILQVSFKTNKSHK", "test": "MITOMI; not inhibited by clemizole 0.1 mM, inhibited by ATA", "conditions": "tags: C-terminal V5-6xHis; bodipy-Lys labelled; wheat germ extract; ORFeome clone (Open Biosystems); label: Cy3", "experimental": "Binding of HuR to the consensus 4A RNA sequence was tested in the presence of the inhibitory molecules shown to inhibit RNA binding by NS4B.", "data": [{"binder": "B1", "values": [{"measurement": "binding result", "result": "binds"}]}]}
